Experimental data as given in article PMC10247859, “Replisome-cohesin interactions provided by the Tof1-Csm3 and Mrc1 cohesion establishment factors” (Chromosoma, 2023).

Legend:
Details in all cases: both partners purified
Smc3 = molecular target: T1, Smc3 (S. cerevisiae (budding yeast), UniProt P47037 1-1230); experiment: cross-linking; CLMS with sulfo-SDA; cohesin, Tof1-Csm3 and Chl1 with or without Mrc1 at 300-350 nM, 30 °C 5 min, cross-linker 2 h at 4 °C, UV 365 nm; LC-MS/MS, 1% FDR at residue-pair level; two samples merged
T1 construct: Smc3, budding yeast; the Smc3 chain of m1; Stood in the cross-linking sample as a chain of cohesin; source: purified as part of cohesin, as previously described (Minamino et al. 2018)
T1 sequence (looked up): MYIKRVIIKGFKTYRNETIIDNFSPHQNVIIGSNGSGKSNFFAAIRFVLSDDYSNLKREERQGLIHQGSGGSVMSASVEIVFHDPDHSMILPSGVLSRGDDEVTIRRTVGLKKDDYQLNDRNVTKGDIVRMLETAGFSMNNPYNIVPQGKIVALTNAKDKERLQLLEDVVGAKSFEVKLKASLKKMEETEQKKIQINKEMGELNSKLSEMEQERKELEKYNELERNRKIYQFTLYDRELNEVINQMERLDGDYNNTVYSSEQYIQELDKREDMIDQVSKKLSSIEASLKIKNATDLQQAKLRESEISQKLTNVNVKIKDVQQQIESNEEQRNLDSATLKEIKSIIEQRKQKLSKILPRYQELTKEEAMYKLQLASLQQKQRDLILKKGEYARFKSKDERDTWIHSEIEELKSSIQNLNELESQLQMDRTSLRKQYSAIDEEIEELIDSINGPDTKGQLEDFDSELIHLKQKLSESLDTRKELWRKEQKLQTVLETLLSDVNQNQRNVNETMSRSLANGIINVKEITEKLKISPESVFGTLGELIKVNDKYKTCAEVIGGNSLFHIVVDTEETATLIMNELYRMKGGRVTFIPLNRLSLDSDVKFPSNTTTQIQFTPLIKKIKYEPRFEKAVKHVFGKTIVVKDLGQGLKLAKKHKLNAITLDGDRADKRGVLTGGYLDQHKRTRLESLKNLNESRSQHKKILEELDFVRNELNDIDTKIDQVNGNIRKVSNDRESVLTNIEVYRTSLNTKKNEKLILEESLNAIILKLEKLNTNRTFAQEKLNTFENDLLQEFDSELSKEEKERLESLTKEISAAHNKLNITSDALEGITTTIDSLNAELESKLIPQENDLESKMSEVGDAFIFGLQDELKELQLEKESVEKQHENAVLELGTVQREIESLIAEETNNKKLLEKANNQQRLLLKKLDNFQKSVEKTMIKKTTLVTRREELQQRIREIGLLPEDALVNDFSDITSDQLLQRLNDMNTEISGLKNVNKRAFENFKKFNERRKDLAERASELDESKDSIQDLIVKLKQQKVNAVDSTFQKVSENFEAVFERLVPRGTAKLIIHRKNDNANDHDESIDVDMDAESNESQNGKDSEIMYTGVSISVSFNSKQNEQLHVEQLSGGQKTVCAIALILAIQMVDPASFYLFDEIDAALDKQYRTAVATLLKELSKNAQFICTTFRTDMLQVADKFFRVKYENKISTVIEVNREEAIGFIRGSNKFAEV

[1] = molecular target: T2, cohesin tetramer complex (Smc1-Smc3-Scc1-Scc3) (S. cerevisiae (budding yeast), UniProt P32908 1-1225; P47037 1-1230; Q12158 1-566; P40541 1-1150); experiment: SEC; Superose 6 Increase 3.2/300; 25 mM HEPES-KOH pH 7.6, 100 mM sodium acetate, 0.5 mM TCEP, 2 mM EDTA; proteins at the same molarity incubated together or separately at 30 °C for 5 min; fractions analysed by immunoblotting
T2 construct: Smc1, cohesin subunit, budding yeast; Smc3, cohesin subunit, budding yeast; Scc1, cohesin subunit, budding yeast; Scc3, cohesin subunit, budding yeast; also called cohesin complex; source: purified as previously described (Minamino et al. 2018): IgG agarose, 3C protease cleavage; copies: + + +
T2 sequence (P32908 whole entry, chain 1 of 4, one chain of several): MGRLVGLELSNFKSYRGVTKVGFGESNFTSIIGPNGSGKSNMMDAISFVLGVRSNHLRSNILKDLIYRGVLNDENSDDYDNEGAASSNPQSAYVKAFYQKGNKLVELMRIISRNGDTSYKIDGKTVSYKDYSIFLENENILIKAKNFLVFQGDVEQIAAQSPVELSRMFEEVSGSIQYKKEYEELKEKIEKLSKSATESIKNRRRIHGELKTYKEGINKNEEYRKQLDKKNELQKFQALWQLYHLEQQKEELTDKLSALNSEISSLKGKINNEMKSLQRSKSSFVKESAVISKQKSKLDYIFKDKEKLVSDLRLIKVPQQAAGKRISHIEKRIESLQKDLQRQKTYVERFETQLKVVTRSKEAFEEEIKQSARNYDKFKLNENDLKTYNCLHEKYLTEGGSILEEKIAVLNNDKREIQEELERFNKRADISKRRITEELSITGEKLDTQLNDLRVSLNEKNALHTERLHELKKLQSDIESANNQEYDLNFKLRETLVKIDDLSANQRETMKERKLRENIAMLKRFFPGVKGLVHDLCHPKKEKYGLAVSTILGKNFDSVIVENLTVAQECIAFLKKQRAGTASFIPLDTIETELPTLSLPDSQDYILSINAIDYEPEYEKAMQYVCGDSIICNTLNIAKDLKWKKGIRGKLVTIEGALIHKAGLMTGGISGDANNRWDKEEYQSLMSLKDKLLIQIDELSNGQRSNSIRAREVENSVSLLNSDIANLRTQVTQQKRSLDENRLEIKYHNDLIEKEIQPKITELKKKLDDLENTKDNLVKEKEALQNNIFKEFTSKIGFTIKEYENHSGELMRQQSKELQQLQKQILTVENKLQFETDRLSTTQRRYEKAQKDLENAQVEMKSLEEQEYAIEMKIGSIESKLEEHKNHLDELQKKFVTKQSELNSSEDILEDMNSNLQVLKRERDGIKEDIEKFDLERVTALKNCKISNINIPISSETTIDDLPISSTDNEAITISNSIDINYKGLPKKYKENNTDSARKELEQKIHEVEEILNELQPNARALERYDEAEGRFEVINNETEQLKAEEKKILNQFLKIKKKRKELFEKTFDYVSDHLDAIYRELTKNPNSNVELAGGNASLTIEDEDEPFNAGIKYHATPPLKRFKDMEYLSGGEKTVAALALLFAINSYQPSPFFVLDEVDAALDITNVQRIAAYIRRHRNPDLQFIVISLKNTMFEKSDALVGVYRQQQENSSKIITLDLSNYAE
T2 sequence (Q12158 whole entry, chain 3 of 4, one chain of several): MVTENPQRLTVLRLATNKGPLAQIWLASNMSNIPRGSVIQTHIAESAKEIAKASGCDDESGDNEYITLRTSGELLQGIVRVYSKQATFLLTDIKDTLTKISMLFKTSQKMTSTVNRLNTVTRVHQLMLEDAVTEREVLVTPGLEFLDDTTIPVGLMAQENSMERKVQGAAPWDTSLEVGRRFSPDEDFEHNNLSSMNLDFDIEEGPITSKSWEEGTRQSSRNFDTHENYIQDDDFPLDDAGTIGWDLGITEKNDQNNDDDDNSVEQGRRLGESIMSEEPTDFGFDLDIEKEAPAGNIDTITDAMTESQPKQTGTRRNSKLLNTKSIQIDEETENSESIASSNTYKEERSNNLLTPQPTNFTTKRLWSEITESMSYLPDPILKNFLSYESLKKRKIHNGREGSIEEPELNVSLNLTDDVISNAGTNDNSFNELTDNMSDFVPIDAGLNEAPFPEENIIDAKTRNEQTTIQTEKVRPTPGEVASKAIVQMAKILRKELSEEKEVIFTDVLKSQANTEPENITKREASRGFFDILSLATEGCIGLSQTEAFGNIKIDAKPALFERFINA
T2 sequence (P40541 whole entry, chain 4 of 4, one chain of several): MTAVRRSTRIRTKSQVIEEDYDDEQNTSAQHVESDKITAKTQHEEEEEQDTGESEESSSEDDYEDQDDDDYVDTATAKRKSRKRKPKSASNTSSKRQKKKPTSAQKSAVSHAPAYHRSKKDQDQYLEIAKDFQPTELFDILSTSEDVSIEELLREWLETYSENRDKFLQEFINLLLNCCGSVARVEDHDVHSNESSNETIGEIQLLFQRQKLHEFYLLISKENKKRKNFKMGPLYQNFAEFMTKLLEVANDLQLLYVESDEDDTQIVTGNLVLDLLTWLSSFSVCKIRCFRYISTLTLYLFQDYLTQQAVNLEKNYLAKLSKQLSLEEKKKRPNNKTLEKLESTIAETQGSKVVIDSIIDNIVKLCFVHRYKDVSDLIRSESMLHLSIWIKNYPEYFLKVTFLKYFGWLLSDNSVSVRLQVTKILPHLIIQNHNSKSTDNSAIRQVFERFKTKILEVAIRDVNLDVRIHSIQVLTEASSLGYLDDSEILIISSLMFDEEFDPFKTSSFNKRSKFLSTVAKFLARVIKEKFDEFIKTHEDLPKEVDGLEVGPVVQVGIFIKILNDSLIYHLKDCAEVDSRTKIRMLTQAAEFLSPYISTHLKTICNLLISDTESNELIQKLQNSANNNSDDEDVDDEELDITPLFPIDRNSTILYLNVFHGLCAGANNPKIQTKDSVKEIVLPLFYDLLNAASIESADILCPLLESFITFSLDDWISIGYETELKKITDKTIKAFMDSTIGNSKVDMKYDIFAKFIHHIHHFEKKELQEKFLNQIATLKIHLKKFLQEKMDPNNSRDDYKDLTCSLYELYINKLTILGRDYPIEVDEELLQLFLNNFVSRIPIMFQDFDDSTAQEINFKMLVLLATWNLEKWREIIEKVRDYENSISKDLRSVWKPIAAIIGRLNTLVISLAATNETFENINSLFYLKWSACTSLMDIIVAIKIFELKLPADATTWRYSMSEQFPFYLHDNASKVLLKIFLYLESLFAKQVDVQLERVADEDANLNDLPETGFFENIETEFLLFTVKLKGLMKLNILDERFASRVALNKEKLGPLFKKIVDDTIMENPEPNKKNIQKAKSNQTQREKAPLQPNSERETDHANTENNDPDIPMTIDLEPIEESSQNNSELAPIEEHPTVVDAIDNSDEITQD

Tof1-Csm3 complex = molecular target: T3, Tof1-Csm3 complex (S. cerevisiae (budding yeast), UniProt P53840 1-1238; Q04659 1-317); experiment: pull-down; Flag-tagged Mrc1 (200-600 nM) held on anti-Flag M2 magnetic beads; with or without a first incubation with Tof1-Csm3, then cohesin (tetramer, trimer or Smc1-Smc3 dimer) or GINS; interaction buffer with 100 mM potassium glutamate; elution with 3x Flag peptide or SDS sample buffer; Coomassie staining; benzonase or NaCl added where indicated
T3 construct: Tof1, budding yeast; Csm3, budding yeast; Held on calmodulin dynabeads when used as bait; source: purified as previously described (Yeeles et al. 2017)
T3 sequence (P53840 whole entry, chain 1 of 2): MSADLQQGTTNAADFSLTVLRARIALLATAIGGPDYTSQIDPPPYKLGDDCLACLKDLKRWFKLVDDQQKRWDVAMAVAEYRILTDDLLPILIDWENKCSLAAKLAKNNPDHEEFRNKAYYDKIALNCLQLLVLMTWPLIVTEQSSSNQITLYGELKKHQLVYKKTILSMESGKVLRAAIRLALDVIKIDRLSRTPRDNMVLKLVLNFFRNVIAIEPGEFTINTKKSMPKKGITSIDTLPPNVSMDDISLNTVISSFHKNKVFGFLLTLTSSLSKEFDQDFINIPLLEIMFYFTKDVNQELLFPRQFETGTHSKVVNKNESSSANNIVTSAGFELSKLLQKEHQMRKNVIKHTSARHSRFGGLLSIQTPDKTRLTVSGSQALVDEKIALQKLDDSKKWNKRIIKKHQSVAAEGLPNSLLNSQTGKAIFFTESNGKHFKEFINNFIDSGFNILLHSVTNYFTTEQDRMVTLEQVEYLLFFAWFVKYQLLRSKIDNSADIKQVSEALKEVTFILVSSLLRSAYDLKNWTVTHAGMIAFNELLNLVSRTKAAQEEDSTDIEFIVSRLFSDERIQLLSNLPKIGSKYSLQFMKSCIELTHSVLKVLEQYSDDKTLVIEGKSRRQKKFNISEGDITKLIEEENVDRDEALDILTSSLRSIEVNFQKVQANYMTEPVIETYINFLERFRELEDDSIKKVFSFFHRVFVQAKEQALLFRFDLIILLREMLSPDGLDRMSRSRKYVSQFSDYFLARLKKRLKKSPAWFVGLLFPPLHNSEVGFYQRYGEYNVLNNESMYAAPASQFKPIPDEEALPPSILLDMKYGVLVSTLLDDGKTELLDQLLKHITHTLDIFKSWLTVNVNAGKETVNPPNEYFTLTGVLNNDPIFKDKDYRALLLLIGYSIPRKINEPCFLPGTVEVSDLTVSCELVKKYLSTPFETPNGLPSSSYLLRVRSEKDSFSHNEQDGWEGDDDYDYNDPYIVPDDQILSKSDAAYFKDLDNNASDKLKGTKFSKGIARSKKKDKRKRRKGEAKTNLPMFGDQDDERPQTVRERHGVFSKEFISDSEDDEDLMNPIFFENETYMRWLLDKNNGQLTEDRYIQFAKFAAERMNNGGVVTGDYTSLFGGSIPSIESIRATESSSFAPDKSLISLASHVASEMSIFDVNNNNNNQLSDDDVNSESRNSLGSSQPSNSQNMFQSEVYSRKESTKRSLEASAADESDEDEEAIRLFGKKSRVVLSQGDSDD
T3 sequence (Q04659 whole entry, chain 2 of 2): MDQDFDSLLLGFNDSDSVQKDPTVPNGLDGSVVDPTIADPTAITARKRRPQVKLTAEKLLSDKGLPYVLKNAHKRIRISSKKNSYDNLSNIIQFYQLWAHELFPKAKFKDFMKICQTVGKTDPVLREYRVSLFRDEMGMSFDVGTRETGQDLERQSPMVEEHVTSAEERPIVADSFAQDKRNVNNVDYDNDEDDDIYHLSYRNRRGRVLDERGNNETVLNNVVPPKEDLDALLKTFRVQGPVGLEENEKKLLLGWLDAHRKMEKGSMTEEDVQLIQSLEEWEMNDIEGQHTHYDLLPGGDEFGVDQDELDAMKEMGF

Smc1-Smc3 dimer = molecular target: T4, Smc1-Smc3 dimer (S. cerevisiae (budding yeast), UniProt P32908 1-1225; P47037 1-1230); experiment: as above
T4 construct: Smc1, cohesin subunit, budding yeast; Smc3, cohesin subunit, budding yeast; also called SMC dimer; SMC dimers (Smc1-Smc3); source: purified following the same protocol as cohesin tetramers (IgG agarose, 3C protease cleavage); not shown: Protein A, C-terminal, cleaved
T4 sequence (P32908 whole entry, chain 1 of 2, one chain of several): as the sequence (P32908 whole entry, chain 1 of 4, one chain of several) above

[2] = molecular target: T5, cohesin trimer (Smc1-Smc3-Scc1) (S. cerevisiae (budding yeast), UniProt P32908 1-1225; P47037 1-1230; Q12158 1-566); experiment: as above
T5 construct: Smc1, cohesin subunit, budding yeast; Smc3, cohesin subunit, budding yeast; Scc1, cohesin subunit, budding yeast; source: purified following the same protocol as cohesin tetramers (IgG agarose, 3C protease cleavage); copies: + +
T5 sequence (P32908 whole entry, chain 1 of 3, one chain of several): as the sequence (P32908 whole entry, chain 1 of 4, one chain of several) above
T5 sequence (Q12158 whole entry, chain 3 of 3, one chain of several): as the sequence (Q12158 whole entry, chain 3 of 4, one chain of several) above

binding result (Smc3): binds
binding result [1]: binds
binding result (Tof1-Csm3 complex): binds
binding result (Smc1-Smc3 dimer): binds
binding result [2]: binds
B1: Mrc1 (natural protein, S. cerevisiae (budding yeast), UniProt P25588 1-1096, looked up)
chain: MDDALHALSSLTAKKRTTTYKKVAVPILDENDNTNGNGPNDIDNPPELTGNGFLFANATLNRVKNRLEGKKAPEQNHNNGKDRSENSLPTQLISNLYDGGEELEKSEVKDNSYSEKNVSSSFTQTQRIPVSIQQDKVFNVPIHSVNDGKPTQLIKEDGLVNETSQALKTPLTTGRPGATQRIDSSGATSQTQPIKSIEPQSQIITTSSNHSNALSPKIPIIPTELIGTSPLFQSIQNRGPDTQMDVPPQTAHDEDKTQAIGIPQATHQEQKTQIDTVAQTLQDEVPHTLKIREIQSELASEDSKREKARNVEYKKPQKPIPTKKFFSKESFLADFDDSSSNEDDDIKLENAHPKPVQNDDELHENKSVELNLTDETRINEKRVPLLSSYANNLKREIDSSKCITLDLDSDSDEYGDDDMDSIKLSKDESVLPISQLSKATILNLKARLSKQNQKLSQRPNKSKDPKVDHNVLLNTLRKASRKQILDHQKEVIETKGLKLEDMAKEKEIVENLLEQEILRNKRIRQKEKRREKLEENDFQLNAHDSGSDSGSESSGFALSGNEIADYESSGSENDNRRESDSEKEDDEIILKQKKSHHVKHIINESDSDTEVEAKPKEKADESLPKRIAINLGHYGDNIGEDTDKFQETNVLDTQNIEEVMAERNTIENEVKDDVYVNEEADEAIRRQLIDKEKLQLKQKEKEHEAKIKELKKRGVTNFFEMEAEESEDEWHGIGGADGEGSDDYDSDLEKMIDDYSKNNFNPHEIREMLAAENKEMDIKMINKILYDIKNGGFRNKRAKNSLELELSDDDEDDVLQQYRLKRRELMRKRRLEIGDDAKLVKNPKSSAFFESMVEDIIEYKNPFGAEEEYNLDITSTATDLDTQDNSINVGDNTGNNEQKPVDQKNKKVIISEDFVQKSLSFLKSNNYEDFETDKELSRIQHGNDEAIEDLYTLKQNSSIKSFTNSQTDSTTSKTVNTIIDLEKRPEDEDEVENGDTSLVGVFKHPSIIKSFASRTDINDKFKEGNKTVKILKSYKTVGSSKASITYMGKTRKLIAPKRKTEGSHRYHHDHHNKKMKMKTKTKSNKLFESGQDSFDN
notes: Mrc1, budding yeast; also called Flag-tagged Mrc1; source: purified as previously described (Yeeles et al. 2017)
